Measurements as given in patent US20030186281A1, “Modified tetracycline repressor protein compositions and methods of use” (priority 2001, published 2003).
Where a chain is given by its changes, count along the chain named. Names may count otherwise.

B1: TetRrevAtc4-67: revTetR(BD) K48K D53Y A56G E58G (protein)
chain: MSRLDKSKVINSALELLNEVGIEGLTTRKLAQKLGVEQPTLYWHVKNKRALLYALGVGILARHHDYSLPAAGESWQSFLRNNAMSFRRALLRYRDGAKVHLGTRPDEKQYDTVETQLRFMTENGFSLRDGLYAISAVSHFTLGAVLEQQEHTAALTDRPAAPDENLPPLLREALQIMDSDDGEQAFLHGLESLIRGFEVQLTALLQIV
modifications: Modified tetracycline repressor
notes: revTetR(BD) K48K D53Y A56G E58G
B2: TetRrev6-3: revTetR(BD) V99G H100P (protein)
chain: B1 chain with Y53D, G56A, G58E, V99G, H100P
modifications: Modified tetracycline repressor
notes: revTetR(BD) V99G H100P
B3: TetRrevAtc4-7: revTetR(BD) I59R L55L A61E H64N (protein)
chain: B1 chain with Y53D, G56A, G58E, I59R, A61E, H64N
modifications: Modified tetracycline repressor
notes: revTetR(BD) I59R L55L A61E H64N
B4: TetRrevDox4-2: revTetR(BD) D53E A54S I59M A61P (protein)
chain: B1 chain with Y53E, A54S, G56A, G58E, I59M, A61P
modifications: Modified tetracycline repressor
notes: revTetR(BD) D53E A54S I59M A61P
B5: TetRrev6-26: revTetR(BD) Y93F G96W A97E H100N (protein)
chain: B1 chain with Y53D, G56A, G58E, Y93F, G96W, A97E, H100N
modifications: Modified tetracycline repressor
notes: revTetR(BD) Y93F G96W A97E H100N
B6: TetRrev6-31: revTetR(BD) G96Q G102S (protein)
chain: B1 chain with Y53D, G56A, G58E, G96Q, G102S
modifications: Modified tetracycline repressor
notes: revTetR(BD) G96Q G102S
B7: TetRrevAtc4-71: revTetR(BD) D53T L55M 56P A61S (protein)
chain: B1 chain with Y53T, L55M, G56P, G58E, A61S
modifications: Modified tetracycline repressor
notes: revTetR(BD) D53T L55M 56P A61S
B8: TetRrev6-32: revTetR(BD) L79V A97T K98R V99G (protein)
chain: B1 chain with Y53D, G56A, G58E, L79V, A97T, K98R, V99G
modifications: Modified tetracycline repressor
notes: revTetR(BD) L79V A97T K98R V99G
B9: TetRrev6-27: revTetR(BD) A71T G96E (protein)
chain: B1 chain with Y53D, G56A, G58E, A71T, G96E
modifications: Modified tetracycline repressor
notes: revTetR(BD) A71T G96E
B10: TetRrevDox4-1: revTetR(BD) D53E A54S A61P (protein)
chain: B1 chain with Y53E, A54S, G56A, G58E, A61P
modifications: Modified tetracycline repressor
notes: revTetR(BD) D53E A54S A61P
B11: TetRrev6-17: revTetR(BD) R94G G96W (protein)
chain: B1 chain with Y53D, G56A, G58E, R94G, G96W
modifications: Modified tetracycline repressor
notes: revTetR(BD) R94G G96W
B12: TetRrev6-23: revTetR(BD) D95E A97E (protein)
chain: B1 chain with Y53D, G56A, G58E, D95E, A97E
modifications: Modified tetracycline repressor
notes: revTetR(BD) D95E A97E
B13: TetRrev04-1: revTetR(BD) G96E K98T (protein)
chain: B1 chain with Y53D, G56A, G58E, G96E, K98T
modifications: Modified tetracycline repressor
notes: revTetR(BD) G96E K98T
B14: TetRrev6-33: revTetR(BD) A97T K98R V99G (protein)
chain: B1 chain with Y53D, G56A, G58E, A97T, K98R, V99G
modifications: Modified tetracycline repressor
notes: revTetR(BD) A97T K98R V99G
B15: TetRrev6-2: revTetR(BD) D95G G96R H100L (protein)
chain: B1 chain with Y53D, G56A, G58E, D95G, G96R, H100L
modifications: Modified tetracycline repressor
notes: revTetR(BD) D95G G96R H100L
B16: TetRrev6-25: revTetR(BD) Y93S D95E G102A (protein)
chain: B1 chain with Y53D, G56A, G58E, Y93S, D95E, G102A
modifications: Modified tetracycline repressor
notes: revTetR(BD) Y93S D95E G102A
B17: TetRrev6-13: revTetR(BD) G96R L101I (protein)
chain: B1 chain with Y53D, G56A, G58E, G96R, L101I
modifications: Modified tetracycline repressor
notes: revTetR(BD) G96R L101I
B18: TetRrev04-4: revTetR(BD) G96E V113A (protein)
chain: B1 chain with Y53D, G56A, G58E, G96E, V113A
modifications: Modified tetracycline repressor
notes: revTetR(BD) G96E V113A
B19: TetRrevAtc4-70: revTetR(BD) D53A A61P (protein)
chain: B1 chain with Y53A, G56A, G58E, A61P
modifications: Modified tetracycline repressor
notes: revTetR(BD) D53A A61P
B20: TetRrevAtc4-9b: revTetR(BD) A56P V57L E58V L60L (protein)
chain: B1 chain with Y53D, G56P, V57L, G58V
modifications: Modified tetracycline repressor
notes: revTetR(BD) A56P V57L E58V L60L
B21: TetRrevAtc4-9: revTetR(BD) L52M A56P V57L E58V L60L H188Y (protein)
chain: B1 chain with L52M, Y53D, L55M, G56P, V57L, G58V, H188Y
modifications: Modified tetracycline repressor
notes: revTetR(BD) L52M A56P V57L E58V L60L H188Y

What follows are molecules tested on tet operator sequence (assay: β-galactosidase activity of a tetracycline-regulated promoter in transformed E. coli with revTetR, in the presence and absence of anhydrotetracycline (atc)). Conditions: RevTetR isolate cultured in the absence of anhydrotetracycline (ATC).
Format: cell-based, Escherichia coli
Outline: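 TetR(BD) chimera mutants (TetR(B) residues 1–50, TetR(D) 51–208) expressed in E. coli regulating a tet operator-controlled lacZ. β-Galactosidase measured in Miller units at 28 °C and 37 °C with and without anhydrotetracycline; reported as percent of maximal expression without Tet repressor.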
In the case of B1, the “β-Galactosidase Activity, Cultured Without ATC” value is reported as 61.815. With B2 the “β-Galactosidase Activity, Cultured Without ATC” value was 23.0695. In the case of B3, the “β-Galactosidase Activity, Cultured Without ATC” value is reported as 84.416. For B4, the “β-Galactosidase Activity, Cultured Without ATC” value was 58.776. B5 was tested, and the “β-Galactosidase Activity, Cultured Without ATC” value was 53.6535. For B6, the “β-Galactosidase Activity, Cultured Without ATC” value was 55.658. In the case of B7, the “β-Galactosidase Activity, Cultured Without ATC” value is reported as 70.197. B8 was tested, and the “β-Galactosidase Activity, Cultured Without ATC” value was 79.3731. For B9, the “β-Galactosidase Activity, Cultured Without ATC” value was 108.105. B10 was tested, and the “β-Galactosidase Activity, Cultured Without ATC” value was 36.03. In the case of B11, the “β-Galactosidase Activity, Cultured Without ATC” value is reported as 56.5081. In the case of B12, the “β-Galactosidase Activity, Cultured Without ATC” value is reported as 101. With B13 the “β-Galactosidase Activity, Cultured Without ATC” value was 102.092. In the case of B14, the “β-Galactosidase Activity, Cultured Without ATC” value is reported as 108.964. With B15 the “β-Galactosidase Activity, Cultured Without ATC” value was 95.487. For B16, the “β-Galactosidase Activity, Cultured Without ATC” value was 42.8584. With B17 the “β-Galactosidase Activity, Cultured Without ATC” value was 15.7835. With B18 the “β-Galactosidase Activity, Cultured Without ATC” value was 99.655. In the case of B19, the “β-Galactosidase Activity, Cultured Without ATC” value is reported as 16.119. B20 was tested, and the “β-Galactosidase Activity, Cultured Without ATC” value was 107.982. B21 was tested, and the “β-Galactosidase Activity, Cultured Without ATC” value was 97.1039.

Same assay, conditions: RevTetR isolate cultured in the presence of anhydrotetracycline (ATC)
B1 was tested, and the “β-Galactosidase Activity, Cultured With ATC” value was 12.616. For B2, the “β-Galactosidase Activity, Cultured With ATC” value was 1.3657. With B3 the “β-Galactosidase Activity, Cultured With ATC” value was 27.649. For B4, the “β-Galactosidase Activity, Cultured With ATC” value was 9.547. In the case of B5, the “β-Galactosidase Activity, Cultured With ATC” value is reported as 6.9688. For B6, the “β-Galactosidase Activity, Cultured With ATC” value was 35.26. B7 was tested, and the “β-Galactosidase Activity, Cultured With ATC” value was 7.372. With B8 the “β-Galactosidase Activity, Cultured With ATC” value was 3.789. For B9, the “β-Galactosidase Activity, Cultured With ATC” value was 44.43. For B10, the “β-Galactosidase Activity, Cultured With ATC” value was 5.627. With B11 the “β-Galactosidase Activity, Cultured With ATC” value was 12.5. For B12, the “β-Galactosidase Activity, Cultured With ATC” value was 49. For B13, the “β-Galactosidase Activity, Cultured With ATC” value was 44.145. B14 was tested, and the “β-Galactosidase Activity, Cultured With ATC” value was 2.984. For B15, the “β-Galactosidase Activity, Cultured With ATC” value was 18.3. With B16 the “β-Galactosidase Activity, Cultured With ATC” value was 4.136. For B17, the “β-Galactosidase Activity, Cultured With ATC” value was 2.5043. B18 was tested, and the “β-Galactosidase Activity, Cultured With ATC” value was 19.878. For B19, the “β-Galactosidase Activity, Cultured With ATC” value was 11.125. For B20, the “β-Galactosidase Activity, Cultured With ATC” value was 1.0594. B21 was tested, and the “β-Galactosidase Activity, Cultured With ATC” value was 1.8695.
